Laboratory results taken from PMC9633773, “Discovering cell-active BCL6 inhibitors: effectively combining biochemical HTS with multiple biophysical techniques, X-ray crystallography and cell-based assays” (Scientific Reports, 2022).

Molecular target: Trx-6His-HRV3C-BCL6 (Thioredoxin-6His-tagged BCL6 BTB, uncleaved) (human), P41182
Assay: AlphaScreen or HTRF; TR-FRET competition: 1 or 10 nM Trx-6His-BCL6 BTB, 300 nM BCOR-A633, 0.5 or 1 nM anti-6His-Terbium cryptate; 25 mM Hepes pH 8, 100 mM NaCl, 0.05% Tween20, 0.5 mM TCEP, 0.05% BSA; 2 h at room temperature

- IC50: 8 µM
Binder: RSEIISTAPSSWVVPGP (modifications not checked) [unlabelled BCOR peptide (17 residue BCOR peptide)]
